Measured values reported in the Human Domainome abundance scans (Beltran et al. 2025).
± gives the uncertainty stated by the source.

B1: 3'-5' exoribonuclease 1, residues 65 to 114; numbered along this chain, Q8IV48 (parent)
chain: VYKEIAITNGCINRMSKEELRAKLSEFKLETRGVKDVLKKRLKNYYKKQK

Variants of: B1
Assay: abundance fitness (aPCA) (normalised: wild type 0, dead -1); higher = more abundant; growth selection in yeast, the domain comes from the species named
Conditions: Homo sapiens

Row | Variant | abundance fitness
1 | VYKEIAITNGCINRMSKEELRAKLSEFKLETRGVKDVLKWRLKNYYKKQK | -0.985 ± 0.062
2 | VYKEIAITNGCINRMSKEELRAKLSEFKLETRGVKDVLKYRLKNYYKKQK | -0.7 ± 0.059
3 | VYKEIAITNGCINRMSKEELRAKLSEFKLETRGVKDVLKKRLKPYYKKQK | -0.767 ± 0.054
4 | VYKEIAITNGCINRMSKEELRAKLSEFKLETRGVKDVLKKRLKMYYKKQK | -0.164 ± 0.048
5 | VYKEIAITNGCINRMSKEELRAKLSEFKLETRGVKDVLKKRLKFYYKKQK | -0.306 ± 0.066
6 | VYKEIAITNGCINRMSKEELRAKLSEFKLETRGVKDVLKKRLKLYYKKQK | -0.168 ± 0.036
7 | VYKEIAITNGCINRMSKEELRAKLSEFKLETRGVKDVLKKRLKAYYKKQK | -0.021 ± 0.04
8 | VYKEIAITNGCINRMSKEELRAKLSEFKLETRGVKDVLKKRLKYYYKKQK | -0.27 ± 0.059
9 | VYKEIAITNGCINRMSKEELRAKLSEFKLETRGVKDVLKKRLKGYYKKQK | -0.158 ± 0.04
10 | VYKEIAITNGCINRMSKEELRAKLSEFKLETRGVKDVLKKRLKQYYKKQK | -0.063 ± 0.046
11 | VYKEIAITNGCINRMSKEELRAKLSEFKLETRGVKDVLKKRLKWYYKKQK | -0.376 ± 0.054
12 | VYKEIAITNGCINRMSKEELRAKLSEFKLETRGVKDVLKKRLKCYYKKQK | -0.211 ± 0.066
13 | VYKEIAITNGCINRMSKEELRAKLSEFKLETRGVKDVLKKRLKKYYKKQK | 0.05 ± 0.051
14 | VYKEIAITNGCINRMSKEELRAKLSEFKLETRGVKDVLKKRLKSYYKKQK | -0.087 ± 0.04
15 | VYKEIAITNGCINRMSKEELRAKLSEFKLETRGVKDVLKKRLKRYYKKQK | 0.017 ± 0.038
16 | VYKEIAITNGCINRMSKEELRAKLSEFKLETRGVKDVLKKRLKTYYKKQK | -0.086 ± 0.045
17 | VYKEIAITNGCINRMSKEELRAKLSEFKLETRGVKDVLKKRLKHYYKKQK | -0.065 ± 0.053
18 | VYKEIAITNGCINRMSKEELRAKLSEFKLETRGVKDVLKKRLKVYYKKQK | -0.318 ± 0.039
19 | VYKEIAITNGCINRMSKEELRAKLSEFKLETRGVKDVLKKRLKEYYKKQK | -0.193 ± 0.053
20 | VYKEIAITNGCINRMSKEELRAKLSEFKLETRGVKDVLKKRLKNYSKKQK | -0.277 ± 0.04
21 | VYKEIAITNGCINRMSKEELRAKLSEFKLETRGVKDVLKKRLKNYCKKQK | 0.066 ± 0.042
22 | VYKEIAITNGCINRMSKEELRAKLSEFKLETRGVKDVLKKRLKNYKKKQK | -0.32 ± 0.067
23 | VYKEIAITNGCINRMSKEELRAKLSEFKLETRGVKDVLKKRLKNYMKKQK | 0.111 ± 0.046
24 | VYKEIAITNGCINRMSKEELRAKLSEFKLETRGVKDVLKKRLKNYFKKQK | 0.116 ± 0.06
25 | VYKEIAITNGCINRMSKEELRAKLSEFKLETRGVKDVLKKRLKNYNKKQK | -0.268 ± 0.069
26 | VYKEIAITNGCINRMSKEELRAKLSEFKLETRGVKDVLKKRLKNYEKKQK | -0.703 ± 0.057

Row | Variant | abundance fitness
27 | VYKEIAITNGCINRMSKEELRAKLSEFKLETRGVKDVLKKRLKNYIKKQK | 0.114 ± 0.053
28 | VYKEIAITNGCINRMSKEELRAKLSEFKLETRGVKDVLKKRLKNYPKKQK | -1 ± 0.07
29 | VYKEIAITNGCINRMSKEELRAKLSEFKLETRGVKDVLKKRLKNYQKKQK | -0.166 ± 0.066
30 | VYKEIAITNGCINRMSKEELRAKLSEFKLETRGVKDVLKKRLKNYGKKQK | -0.533 ± 0.035
31 | VYKEIAITNGCINRMSKEELRAKLSEFKLETRGVKDVLKKRLKNYWKKQK | -0.229 ± 0.049
32 | VYKEIAITNGCINRMSKEELRAKLSEFKLETRGVKDVLKKRLKNYLKKQK | 0.079 ± 0.038
33 | VYKEIAITNGCINRMSKEELRAKLSEFKLETRGVKDVLKKRLKNYTKKQK | -0.125 ± 0.047
34 | VYKEIAITNGCINRMSKEELRAKLSEFKLETRGVKDVLKKRMKNYYKKQK | -0.611 ± 0.064
35 | VYKEIAITNGCINRMSKEELRAKLSEFKLETRGVKDVLKKRNKNYYKKQK | -0.918 ± 0.1
36 | VYKEIAITNGCINRMSKEELRAKLSEFKLETRGVKDVLKKRPKNYYKKQK | -0.999 ± 0.081
37 | VYKEIAITNGCINRMSKEELRAKLSEFKLETRGVKDVLKKREKNYYKKQK | -0.892 ± 0.057
38 | VYKEIAITNGCINRMSKEELRAKLSEFKLETRGVKDVLKKRDKNYYKKQK | -0.961 ± 0.083
39 | VYKEIAITNGCINRMSKEELRAKLSEFKLETRGVKDVLKKRKKNYYKKQK | -1.04 ± 0.1
40 | VYKEIAITNGCINRMSKEELRAKLSEFKLETRGVKDVLKKRFKNYYKKQK | -0.551 ± 0.057
41 | VYKEIAITNGCINRMSKEELRAKLSEFKLETRGVKDVLKKRYKNYYKKQK | -0.969 ± 0.092
42 | VYKEIAITNGCINRMSKEELRAKLSEFKLETRGVKDVLKKRVKNYYKKQK | -0.754 ± 0.038
43 | VYKEIAITNGCINRMSKEELRAKLSEFKLETRGVKDVLKKRGKNYYKKQK | -0.871 ± 0.038
44 | VYKEIAITNGCINRMSKEELRAKLSEFKLETRGVKDVLKKRWKNYYKKQK | -0.888 ± 0.049
45 | VYKEIAITNGCINRMSKEELRAKLSEFKLETRGVKDVLKKRAKNYYKKQK | -0.918 ± 0.053
46 | VYKEIAITNGCINRMSKEELRAKLSEFKLETRGVKDVLKKRCKNYYKKQK | -0.925 ± 0.067
47 | VYKEIAITNGCINRMSKEELRAKLSEFKLETRGVKDVLKKRQKNYYKKQK | -0.912 ± 0.071
48 | VYKEIAITNGCINRMSKEELRAKLSEFKLETRGVKDVLKKRSKNYYKKQK | -0.511 ± 0.041
49 | VYKEIAITNGCINRMSKEELRAKLSEFKLETRGVKDVLKKRTKNYYKKQK | -1.1 ± 0.087
50 | VYKEIAITNGCINRMSKEELRAKLSEFKLETRGVKDVLKKRHKNYYKKQK | -0.907 ± 0.075
51 | VYKEIAITNGCINRMSKEELRAKLSEFKLETRGVKDVLKKRLKNNYKKQK | -0.64 ± 0.081
52 | VYKEIAITNGCINRMSKEELRAKLSEFKLETRGVKDVLKKRLKNCYKKQK | -0.399 ± 0.06
